Experimental data published in patent US11702475B2, “Cysteine engineered fibronectin type III domain binding molecules” (Janssen Biotech, Inc., priority 2013, dated 2023).
Where a chain is given by its changes, count along the chain named. “Also recorded” adds a separate entry of the source. Like-named read-outs stand apart in the source and are kept apart here.

How the values were obtained:
[1] = system: H292-HGF human lung cancer xenograft; test: Efficacy of bispecific molecule and other inhibitors in subcutaneous H292-HGF xenograft model; format: in vivo, SCID/Beige mice; settings: for mean tumor size: ECB38 25 mg/kg; for antitumor activity (in words): doses as in E46
Experimental: The H292-HGF cells were maintained in vitro in RPMI1640 medium supplemented with fetal bovine serum (10% v/v), and L-glutamine (2 mM) at 37° C. in an atmosphere of 5% CO2 in air. The cells were routinely subcultured twice weekly by trypsin-EDTA treatment. The cells growing in an exponential growth phase were harvested and counted for tumor inoculation.
Each mouse was inoculated subcutaneously at the right flank region with H292-HGF tumor cells (2×10^6) in 0.1 ml of PBS with cultrex (1:1) for tumor development. The treatments were started when the mean tumor size reached 139 mm^3. […] The date of tumor cell inoculation was denoted as day 0.
Before commencement of treatment, all animals were weighed and the tumor volumes were measured. Since the tumor volume can affect the effectiveness of any given treatment, mice were assigned into groups using randomized block design based upon their tumor volumes. […] The randomized block design was used to assign experimental animals to groups. First, the experimental animals were divided into homogeneous blocks according to their initial tumor volume. Secondly, within each block, randomization of experimental animals to treatments was conducted.
The major endpoint was whether tumor growth can be delayed or tumor bearing mice can be cured. Tumor size was measured twice weekly in two dimensions using a caliper, and the volume was expressed in mm^3 using the formula: V=0.5 a×b^2 where a and b are the long and short diameters of the tumor, respectively. The tumor size was then used for calculations of both T−C and T/C values. T−C was calculated with T as the time (in days) required for the mean tumor size of the treatment group to reach 1000 mm^3, and C was the time (in days) for the mean tumor size of the control group to reach the same size. The T/C value (in percent) was an indication of antitumor efficacy; T and C were the mean volume of the treated and control groups, respectively, on a given day. Complete tumor regression (CR) is defined as tumors that are reduced to below the limit of palpation (62.5 mm^3). Partial tumor regression (PR) is defined as tumors that are reduced from initial tumor volume. A minimum duration of CR or PR in 3 or more successive tumor measurements is required for a CP or PR to be considered durable.
Statistical analyses of difference in tumor volume among the groups were evaluated using a one-way ANOVA followed by individual comparisons using Games-Howell (equal variance not assumed). All data were analyzed using SPSS 18.0. p<0.05 was considered to be statistically significant.

[2] = Body weight and tolerability in the H292-HGF xenograft study; settings: for toxicity / body weight loss / tolerability (in words): doses as in E46
Experimental: (§2) At the time of routine monitoring, the animals were checked for any effects of tumor growth and treatments on normal behavior, such as mobility, visual estimation of food and water consumption, body weight gain/loss (body weights were measured twice weekly), eye/hair matting and any other abnormal effect.
(§3) Animals for which the body weight loss exceeded 20%, or for which the mean tumor size of the group exceeds 2000 mm^3 were euthanized. The study was terminated after two weeks of observation after the final dose.

EGFR [3] = molecular target: T1, EGFR (Homo sapiens, UniProt P00533); test: Inhibition of EGFR phosphorylation in NCI-H441 cells; format: cell-based; settings: FIG. 7C
Experimental: (§1) NCI-H292, NCI-H441, or NCI-H596 cells were plated in 96 well plates in RPMI medium containing 10% FBS. 24 hours later, medium was replaced with serum free RPMI. […] Cells were treated for 1h with the monospecific or bispecific molecules and then stimulated with EGF, HGF, or a combination of EGF and HGF for 15 minutes at 37° C., 5% CO2. Cells were lysed with MSD Lysis Buffer and cell signaling was assessed using appropriate MSD Assay plates, according to manufacturer's instructions, as described above.

EGFR [4] = molecular target: T1, EGFR; test: Inhibition of EGFR phosphorylation in NCI-H292 cells; format: cell-based; settings: FIG. 7A
Experimental: as §1
Purified bispecific PEG24-maleimide conjugates were tested for their ability to inhibit EGF-stimulated phosphorylation of EGFR in the human tumor cell line NCI-H292 (American Type Culture Collection, cat. #CRL-1848) using the EGFR phospho(Tyr1173) kit from Meso Scale Discovery (Gaithersburg, Md.) and as described in Example 3.

EGFR [5] = molecular target: T1, EGFR; test: Inhibition of EGFR phosphorylation in NCI-H596 cells; format: cell-based; settings: FIG. 7B
Experimental: as §1

[6] = system: H292-HGF tumor xenografts; test: Tumor efficacy study with bispecific EGFR/c-Met molecules of variable affinity; format: in vivo, SCID Beige mice; settings: 25 mg/kg three times per week
Experimental: One week after implantation, mice were stratified into groups with equivalent tumor volumes (mean tumor volume=77.9+/−1.7 mm^3). Mice were dosed three times per week with the bispecific molecules and tumor volumes were recorded twice weekly.

[7] = mouse, in vivo, ip
Experimental: SCID Beige mice were subcutaneously inoculated with NCI-H292 cells expressing human HGF (2.0×10^6 cells in Cultrex (Trevigen) in a volume of 200 μL) on the dorsal flank of each animal. Tumor measurements were taken twice weekly until tumor volumes ranged between 150-250 mm^3. […] At 6h or 72h after dosing, tumors were extracted and immediately frozen in liquid nitrogen. […] Immediately after collection, the blood samples were centrifuged and the resulting plasma was transferred to sample tubes and stored at −80° C. Tumors were weighed, cut into small pieces, and lysed in Lysing Matrix A tubes (LMA) containing RIPA buffer with HALT protease/phosphatase inhibitors (Pierce), 50 mM sodium fluoride (Sigma), 2 mM activated sodium orthovanadate (Sigma), and 1 mM PMSF (MesoScale Discovery). Lysates were removed from LMA matrix and centrifuged to remove insoluble protein. The soluble tumor protein was quantified with a BCA protein assay and diluted to equivalent protein levels in tumor lysis buffer. Phosphorylated c-Met, EGFR and ERK were measured using assay plates from MesoScale Discovery (according to Manufacturer's protocol and as described above).

[8] = mouse, in vivo
Experimental: as §2, §3

H292 cells = test: Inhibition of proliferation of H292 cells (HGF-induced); format: cell-based, human
Text: Inhibition of tumor cell proliferation can be measured using standard methods and methods described herein.
It was verified that the enhanced potency for inhibition of EGFR and c-Met phosphorylation with the bispecific EGFR/c-Met molecules translated into an enhanced inhibition of signaling and proliferation. […] The proliferation assay was completed using different combinations EGFR and c-Met binding FN3 domains either as a mixture or linked in a bispecific format. […] This confirmed that the avidity effect observed at the level of the receptors (FIG. 6 and FIG. 7) translates into an improvement in inhibiting cell signaling (Table 17) and cell proliferation (Table 18).
Select EGFR/c-Met molecules were characterized for their affinity to both EGFR and c-Met, their ability to inhibit EGFR and c-Met autophosphorylation, and their effect on proliferation of HGF cells. Binding affinity of the bispecific EGFR/c-Met molecules to recombinant EGFR and/or c-Met extracellular domain was further by surface Plasmon resonance methods using a Proteon Instrument (BioRad) according to protocol described in Example 3.

[9] = day 23 after tumor inoculation, Crizotinib 50 mg/kg, Erlotinib 50 mg/kg, Cetuximab 1 mg/mouse

C[C@@H](Oc1cc(-c2cnn(C3CCNCC3)c2)cnc1N)c1c(Cl)ccc(F)c1Cl [Crizotinib, crizotinib]
Tumor volume (mm^3) ([1]; day 9 after tumor inoculation, mean ± SEM, bispecific 25 mg/kg, Crizotinib 50 mg/kg, Erlotinib 50 mg/kg, Cetuximab 1 mg/mouse): 217 ± 20 mm^3 | Tumor volume (mm^3) ([1]; day 13 after tumor inoculation, mean ± SEM, bispecific 25 mg/kg, Crizotinib 50 mg/kg, Erlotinib 50 mg/kg, Cetuximab 1 mg/mouse): 547 ± 43 mm^3 | Tumor volume (mm^3) ([1]; day 16 after tumor inoculation, mean ± SEM, bispecific 25 mg/kg, Crizotinib 50 mg/kg, Erlotinib 50 mg/kg, Cetuximab 1 mg/mouse): 914 ± 92 mm^3 | Tumor volume (mm^3) ([1]; day 20 after tumor inoculation, mean ± SEM, bispecific 25 mg/kg, Crizotinib 50 mg/kg, Erlotinib 50 mg/kg, Cetuximab 1 mg/mouse): 1438 ± 239 mm^3 | T/C (%) ([1]; day 23, mean volume of treated vs control group, doses as in the Treatment column): 120% | Tumor Size (mm^3) at day 23 ([1]; day 23, mean ± SEM, bispecific 25 mg/kg, Crizotinib 50 mg/kg, Erlotinib 50 mg/kg, combination 50 mg/kg + 50 mg/kg, Cetuximab 1 mg/mouse): 2102 ± 298 mm^3 | mean tumor size [1, 9]: 2,102 mm^3 | Tumor volume (mm^3) ([1]; day 23 after tumor inoculation, mean ± SEM, bispecific 25 mg/kg, Crizotinib 50 mg/kg, Erlotinib 50 mg/kg, Cetuximab 1 mg/mouse): 2102 ± 298 mm^3 | antitumor activity (in words) [1]: no antitumor activity | toxicity / body weight loss / tolerability (in words) [2]: More severe body weight loss

C#Cc1cccc(Nc2ncnc3cc(OCCOC)c(OCCOC)cc23)c1 [Erlotinib, erlotinib]
toxicity / body weight loss / tolerability (in words) [2]: More severe body weight loss

B1: ECB5: bispecific SEQ ID 54: P53A1R5-17V2, (GGGGS)4, P114AR7P94-A3 (protein)
chain: MLPAPKNLVVSEVTEDSARLSWADPHGFYDSFLIQYQESEKVGEAIVLTVPGSERSYDLTGLKPGTEYTVSIYGVHNVYKDTNMRGLPLSAIFTTGGGGSGGGGSGGGGSGGGGSMLPAPKNLVVSRVTEDSARLSWTAPDAAFDSFWIRYFEFLGSGEAIVLTVPGSERSYDLTGLKPGTEYVVNIMGVKGGKISPPLSAIFTT
modifications: bispecific EGFR/cMet binding molecule
decrease of IC50 for inhibition of EGFR phosphorylation compared to the monospecific EGFR-binding FN3 domain (EGFR [3]): 30 fold | inhibition of phosphorylation of EGFR, bispecific vs monospecific (in words) (EGFR [4]): comparable | inhibition of phosphorylation of EGFR, bispecific vs monospecific (in words) (EGFR [5]): comparable

B2: ECB39: bispecific SEQ ID 121: P53A1R5-17V2, (AP)5, P114AR7P94-A3, linked to albumin binding domain (protein)
chain: MLPAPKNLVVSEVTEDSARLSWADPHGFYDSFLIQYQESEKVGEAIVLTVPGSERSYDLTGLKPGTEYTVSIYGVHNVYKDTNMRGLPLSAIFTTAPAPAPAPAPLPAPKNLVVSRVTEDSARLSWTAPDAAFDSFWIRYFEFLGSGEAIVLTVPGSERSYDLTGLKPGTEYVVNIMGVKGGKISPPLSAIFTTAPAPAPAPAPLAEAKVLANRELDKYGVSDYYKNLINNAKTVEGVKALLDEILAALP
modifications: Bispecific EGFR/c-Met binding molecule
tumor growth / tumor growth inhibition (in words) [6]: showed the most efficacy | tumor accumulation (in words) [7]: significantly more tumor accumulation at 6 hours relative to the other molecules

B3: ECB38: bispecific SEQ ID 120: P54AR4-83V2, (AP)5, P114AR7P94-A3, linked to albumin binding domain (protein)
chain: B2 chain with A23D, H26W, G27A, D30E
modifications: Bispecific EGFR/c-Met binding molecule
mean tumor size [1, 9]: 23 mm^3 | antitumor activity (in words) [1]: complete tumor regression (CR) in all mice; also recorded: complete response | tumor growth / tumor growth inhibition (in words) [6]: showed the most efficacy | toxicity / body weight loss / tolerability (in words) [8]: Slight toxicity | mice euthanized when BWL>20% during the treatment period ([2]; 25 mg/kg): 3 mice | mice in which the treatment was tolerated ([2]; 25 mg/kg, 3 times/week x 3 weeks): 7 out of 10

B4: ECB15: bispecific SEQ ID 57: P54AR4-83V2, (AP)5, P114AR7P94-A3 (protein)
chain: MLPAPKNLVVSEVTEDSARLSWDDPWAFYESFLIQYQESEKVGEAIVLTVPGSERSYDLTGLKPGTEYTVSIYGVHNVYKDTNMRGLPLSAIFTTAPAPAPAPAPLPAPKNLVVSRVTEDSARLSWTAPDAAFDSFWIRYFEFLGSGEAIVLTVPGSERSYDLTGLKPGTEYVVNIMGVKGGKISPPLSAIFTT
modifications: bispecific EGFR/cMet binding molecule
IC50 (H292 cells): 23 nM

B5: ECB94: bispecific SEQ ID 61: P54AR4-83V22, (AP)5, P114AR7P94-A3v22 (protein)
chain: B4 chain with M84I, M177L
modifications: bispecific EGFR/cMet binding molecule
IC50 (H292 cells): 29.6 nM

B6: ECB95: bispecific SEQ ID 62: P54AR4-83V22, (AP)5, P114AR9P121-A6v2 (protein)
chain: B4 chain with M84I, L144V, M177L, K183S
modifications: bispecific EGFR/cMet binding molecule
IC50 (H292 cells): 383 nM

B7: ECB96: bispecific SEQ ID 63: P54AR4-83V22, (AP)5, P114AR9P122-A7v2 (protein)
chain: B4 chain with M84I, L144V, G145S, S146K, E148D, M177L, K183S
modifications: bispecific EGFR/cMet binding molecule
IC50 (H292 cells): 9480 nM

B8: ECB97: bispecific SEQ ID 64: P54AR4-83V22, (AP)5, P114AR7P95-C5V2 (protein)
chain: B4 chain with M84I, M177L, G178S, K183S
modifications: bispecific EGFR/cMet binding molecule
IC50 (H292 cells): 31 nM

B9: ECB106: bispecific SEQ ID 65: P54AR4-83V23, (AP)5, P114AR7P94-A3v22 (protein)
chain: B4 chain with W26H, M84I, M177L
modifications: bispecific EGFR/cMet binding molecule
IC50 (H292 cells): 484 nM

B10: ECB107: bispecific SEQ ID 66: P54AR4-83V23, (AP)5, P114AR9P121-A6v2 (protein)
chain: B4 chain with W26H, M84I, L144V, M177L, K183S
modifications: bispecific EGFR/cMet binding molecule
IC50 (H292 cells): 2640 nM

B11: ECB108: bispecific SEQ ID 67: P54AR4-83V23, (AP)5, P114AR9P122-A7v2 (protein)
chain: B4 chain with W26H, M84I, L144V, G145S, S146K, E148D, M177L, K183S
modifications: bispecific EGFR/cMet binding molecule
IC50 (H292 cells): 11400 nM

B12: ECB109: bispecific SEQ ID 68: P54AR4-83V23, (AP)5, P114AR7P95-C5V2 (protein)
chain: B4 chain with W26H, M84I, M177L, G178S, K183S
modifications: bispecific EGFR/cMet binding molecule
IC50 (H292 cells): 574 nM
